Target: T1, human DLL3 on DLL3 expressing cancer cell lines (human, UniProt Q9NYJ7 27-618)
T1 sequence: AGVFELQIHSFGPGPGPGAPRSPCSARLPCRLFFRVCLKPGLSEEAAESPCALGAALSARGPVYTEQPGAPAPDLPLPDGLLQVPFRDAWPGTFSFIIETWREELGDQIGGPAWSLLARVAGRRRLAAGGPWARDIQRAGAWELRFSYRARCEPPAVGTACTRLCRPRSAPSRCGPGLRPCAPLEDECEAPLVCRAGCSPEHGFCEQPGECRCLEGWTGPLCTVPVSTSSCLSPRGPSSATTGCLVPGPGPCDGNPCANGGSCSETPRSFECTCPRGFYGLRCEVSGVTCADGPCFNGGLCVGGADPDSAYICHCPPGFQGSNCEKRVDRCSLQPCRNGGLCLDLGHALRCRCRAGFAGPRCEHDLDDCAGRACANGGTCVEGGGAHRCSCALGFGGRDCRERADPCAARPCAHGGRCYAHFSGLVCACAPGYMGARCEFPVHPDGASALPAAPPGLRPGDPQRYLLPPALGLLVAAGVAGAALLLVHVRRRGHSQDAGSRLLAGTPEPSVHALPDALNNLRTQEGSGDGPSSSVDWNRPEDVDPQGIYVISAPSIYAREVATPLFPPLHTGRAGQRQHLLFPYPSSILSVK
Experiment: cell-based or functional assay

Binder | fold increase in TDCC potency compared to the parental DLL3 binder DH6 [fold]
anti-DLL3 trispecific protein 4H011 (other, not shown: small tags and cut ends) EVQLVESGGGLVQPGGSLTLSCAASGSSVSRLSMAWYRQAPGKKRELVAGISVDGSTDYIDSVKGRFTISRDNAKNSVYLQMNSLRAEDTAVYYCYAYRWTTRLTYWGQGTLVTVSS | > 8

Target: T1, human DLL3 on DLL3 expressing cancer …
Experiment: cell-based or functional assay
Remark: another data set of the same source

Binder | TDCC EC50, CHO expressed purified protein [nM]
anti-DLL3 trispecific protein 1A011 (other, not shown: small tags and cut ends) EVQLVESGGGLVQPGGSLTLSCVASGSTSSINAIGWYRRAPGKQRELVAGISSDGSKVYIDSVKGRFTISRDNAKNSVYLQMNSLRAEDTAVYYCYYFRTVSGSSYRYWGQGTLVTVSS | 0.17
anti-DLL3 trispecific protein 2C04 (other, not shown: small tags and cut ends) EVQLVESGGGLVQPGGSLTLSCVASGSTSSRNAMGWYRRAPGKQRELVAGISSDGSKLYADSVKGRFTISRDNAKNSVYLQMNSLRAEDTAVYYCYYFRTVLGSSMRYWGQGTLVTVSS | 0.043
anti-DLL3 trispecific protein 2E02 (other, not shown: small tags and cut ends) EVQLVESGGGLVQPGGSLTLSCVASGSTSAINAMGWYRRAPGKQRELVAGISSDGSKVYVDSVKGRFTISRDNAKNSVYLQMNSLRAEDTAVYYCYYFRTVSGSSQRYWGQGTLVTVSS | 0.12
anti-DLL3 trispecific protein 2E05 (other, not shown: small tags and cut ends) EVQLVESGGGLVQPGGSLTLSCVASGSPSSINAYGWYRRAPGKQRELVAGISSDGSKVYSDSVKGRFTISRDNAKNSVYLQMNSLRAEDTAVYYCYYFRTVSGSSMSYWGQGTLVTVSS | 0.072
anti-DLL3 trispecific protein 2H02 (other, not shown: small tags and cut ends) EVQLVESGGGLVQPGGSLTLSCVASGSTSSINAMAWYRRAPGKQRELAAGISSDGSKVYADSVKGRFTISRDNAKNSVYLQMNSLRAEDTAVYYCYYFHTVSGSSMRYWGQGTLVTVSS | 0.096
anti-DLL3 trispecific protein 4D09 (other, not shown: small tags and cut ends) EVQLVESGGGLVQPGGSLTLSCAASGSSVKFLSMAWYRQAPGKKRELVAGISADGSTDYILSVKGRFTISRDNAKNSVYLQMNSLRAEDTAVYYCYAYEWTTRYTYWGQGTLVTVSS | 0.06
anti-DLL3 trispecific protein 4D011 (other, not shown: small tags and cut ends) EVQLVESGGGLVQPGGSLTLSCAASGSSVRFLSMAWYRQAPGKKRELVAGISVDGSTDYIDSVKGRFTISRDNAKNSVYLQMNSLRAEDTAVYYCYAYRWRTRYTYWGQGTLVTVSS | 0.098
anti-DLL3 trispecific protein 1H012 (other, not shown: small tags and cut ends) EVQLVESGGGLVQPGGSLTLSCVASGSTSSINAMGWYRRAPGKQRELVAGISSDGSKVYVDSVKGRFTISRDNAKNSVYLQMNSLRAEDTAVYYCYYFRTVSGSSMPYWGQGTLVTVSS | 0.063
